Consider 8 molecules from patent US20120316071A1 (published 2012).

For experiment [1], the target named is T1, Recombinant Human DLL4 (delta-like protein 4) (human, UniProt Q9NR61 27-529).
T1 construct: Bought recombinant protein (R&D Systems Cat#1506-D4/CF); also called rHuman DLL4; Delta-like 4
The experiment in a line: ECL (MSD) 96-well plate assay; plate coated with 30 µg/mL DLL4; Fab 0.02 µM.

The target in experiment [2] is T1, Recombinant Human DLL4 (delta-like …). The experiment can be described thus: ECL (MSD) 96-well plate assay; plate coated with 15 µg/mL DLL4; Fab 0.004 µM.
In experiment [3] the target is T2, rHuman CD44/Fc Chimera, CF (R&D Systems Cat#3660-CD) (human, UniProt P16070 21-220).
T2 construct: Bought recombinant Fc chimera; not shown: Fc of the bought R&D Systems chimera
The experiment in a line: ECL Multispot (MSD), antigen spotted on plate, Fab 0.1 uM.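 Also: ratio compares each antigen's electrochemiluminescence to the blank within the same well, with a ratio of at least 4 counted as a binding Fab hit.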

Experiment [4] has as its target T3, rHuman IGF-1 sR, CF (R&D Systems Cat#391-GR) (human, UniProt P08069 31-932).
T3 construct: Bought recombinant soluble receptor; also called insulin-like growth factor-1 soluble receptor
The description is as above.

Experiment [5] addresses T4, rHuman P-Cadherin/Fc Chimera, CF (R&D Systems Cat#861-PC) (human, UniProt P22223 108-654).
T4 construct: Bought recombinant Fc chimera; not shown: Fc of the bought R&D Systems chimera
The description is as above.

Experiment [6] concerns the target T5, rHuman Erythropoietin R/Fc Chimera, CF (R&D Systems Cat#963-ER) (human, UniProt P19235 25-250).
T5 construct: Bought recombinant Fc chimera; also called EPO R; EPO R/Fc; not shown: Fc of the bought R&D Systems chimera
T5 sequence (looked up): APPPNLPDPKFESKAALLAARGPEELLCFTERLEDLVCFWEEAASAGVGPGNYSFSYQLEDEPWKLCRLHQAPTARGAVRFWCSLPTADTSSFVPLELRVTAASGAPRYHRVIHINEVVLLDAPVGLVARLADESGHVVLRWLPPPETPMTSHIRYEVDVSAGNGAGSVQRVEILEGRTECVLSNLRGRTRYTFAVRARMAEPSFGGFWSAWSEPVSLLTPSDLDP
Described as above.

For experiment [7], the target named is T6, Recombinant Human DLL4 (R&D Systems Cat#1506-D4/CF) (human, UniProt Q9NR61 27-524).
T6 construct: Bought recombinant protein; also called delta-like protein 4; rHuman DLL4
The experiment is described as above.

Experiment [8] addresses T7, rHuman ErbB2/Fc Chimera, CF (R&D Systems Cat#1129-ER) (human, UniProt P04626 23-652).
T7 construct: Bought recombinant Fc chimera; not shown: Fc of the bought R&D Systems chimera
Described as above.

Experiment [9] has as its target T8, rHuman EGF R/Fc Chimera, CF (R&D Systems Cat#344-ER) (human, UniProt P00533 25-645).
T8 construct: Bought recombinant Fc chimera; not shown: Fc of the bought R&D Systems chimera
Described as above.

In experiment [10] the target is T9, rHuman HGF R/c-MET/Fc Chimera, CF (R&D Systems Cat#358-MT/CF) (human, UniProt P08581 25-932).
T9 construct: Bought recombinant Fc chimera; also called HGF R/Fc; not shown: Fc of the bought R&D Systems chimera
The experiment is described as above.

In experiment [11] the target is T10, rHuman Notch-1/Fc Chimera, CF (R&D Systems Cat#3647-TK) (human, UniProt P46531 19-526).
T10 construct: Bought recombinant Fc chimera; not shown: Fc of the bought R&D Systems chimera
The description is as above.

The target in experiment [12] is T1, Recombinant Human DLL4 (delta-like …). The experiment can be described thus: ECL (MSD) multispot assay; Fab 0.1 µM.
Experiment [13] has the same target. The experiment in a line: ECL (MSD) multispot assay; Fab 0.01 µM.
The target of experiment [14] is T11, Recombinant Human DLL4 (R&D Systems Cat#1506-D4/CF) (human, UniProt Q9NR61 27-524).
T11 construct: Bought recombinant protein; also called delta-like protein 4; rHuman DLL4
The experiment can be described thus: ECL (MSD) binding assay, immobilised DLL4, repeat experiment.

The target in experiment [15] is T12, rHuman Notch-1/Fc Chimera, CF (R&D Systems Cat#3647-TK) (human, UniProt P46531 19-526).
T12 construct: Bought recombinant protein
The experiment in a line: ECL Multispot (MSD) assay, antigen spotted on plate, 10 nM Fab.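 Also: purified Fab bound to antigen spots for 1 h at 20 °C, then TAG detection antibody, electrochemiluminescence compared with each well's blank, ratio of 4 or more marks a hit.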

The target of experiment [16] is T13, rHuman CD44/Fc Chimera, CF (R&D Systems Cat#3660-CD) (human, UniProt P16070 21-220).
T13 construct: Bought recombinant protein
Described as above.

In experiment [17] the target is T14, rHuman IGF-1 sR (insulin-like growth factor-1 soluble receptor), CF (R&D Systems Cat#391-GR) (human, UniProt P08069 31-932).
T14 construct: Bought recombinant soluble receptor
The experiment is described as above.

Experiment [18] addresses T15, rHuman P-Cadherin/Fc Chimera, CF (R&D Systems Cat#861-PC) (human, UniProt P22223 108-654).
T15 construct: Bought recombinant protein
Described as above.

Experiment [19] addresses T16, rHuman Erythropoietin R/Fc Chimera, CF (R&D Systems Cat#963-ER) (human, UniProt P19235 25-250).
T16 construct: Bought recombinant protein; also called EPO R; EPO R/Fc
T16 sequence (looked up): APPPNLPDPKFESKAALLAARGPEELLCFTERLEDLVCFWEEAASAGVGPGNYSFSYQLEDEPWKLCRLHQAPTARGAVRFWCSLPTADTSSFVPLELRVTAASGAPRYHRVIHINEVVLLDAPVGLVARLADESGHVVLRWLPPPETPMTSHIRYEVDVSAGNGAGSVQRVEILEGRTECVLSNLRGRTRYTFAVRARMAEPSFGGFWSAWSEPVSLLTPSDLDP
The description is as above.

In experiment [20] the target is T11, Recombinant Human DLL4 (R&D Systems …). Described as above.
Experiment [21] has as its target T17, rHuman ErbB2/Fc Chimera, CF (R&D Systems Cat#1129-ER) (human, UniProt P04626 23-652).
T17 construct: Bought recombinant protein
The experiment is described as above.

Experiment [22] has as its target T18, rHuman EGF R/Fc Chimera, CF (R&D Systems Cat#344-ER) (human, UniProt P00533 25-645).
T18 construct: Bought recombinant protein
The experiment is described as above.

The target in experiment [23] is T19, rHuman HGF R/c-MET/Fc Chimera, CF (R&D Systems Cat#358-MT/CF) (human, UniProt P08581 25-932).
T19 construct: Bought recombinant protein; also called HGF R/Fc
Described as above.

In experiment [24] the target is T11, Recombinant Human DLL4 (R&D Systems …). The experiment in a line: ECL (MSD) binding assay, DLL4 signal divided by blank, repeat experiment.
The target in experiment [25] is T3, rHuman IGF-1 sR, CF (R&D Systems …). The experiment in a line: ECL Multispot (MSD), antigen spotted on plate, Fab 0.01 uM.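 Also: electrochemiluminescence of each antigen spot divided by the blank of the same well, with a value of 4 or above scoring the Fab as a binding hit.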
Experiment [26] deals with T6, Recombinant Human DLL4 (R&D Systems …). Described as above.
The target in experiment [27] is T8, rHuman EGF R/Fc Chimera, CF (R&D …). The experiment is described as above.
Experiment [28] concerns the target T9, rHuman HGF R/c-MET/Fc Chimera, CF (R&D …). The experiment is described as above.

B1: Fab VH1-46_IGHD6-6*01_IGHJ1*01 S104C & L6_IGKJ1*01 (Fab, V domains shown)
VH: QVQLVQSGAEVKKPGASVKVSCKASGYTFTSYYMHWVRQAPGQGLEWMGIINPSGGSTSYAQKFQGRVTMTRDTSTSTVYMELSSLRSEDTAVYYCAREEYSSCSAEYFQHWGQGTLVTVSS
VL: not shown
notes: Fab; The VH was cloned into Plasmid A (CH1, His6 and Flag tags) and the kappa VL into Plasmid C (kappa CL); expressed in E. coli
On to B1, for which the values for the Signal/Noise in experiment [1] and in experiment [2] were 9.9 and 8.4, respectively.

B2: Fab VH1-46_IGHD6-6*01_IGHJ1*01 & L6_IGKJ1*01 (Fab, V domains shown)
VH: QVQLVQSGAEVKKPGASVKVSCKASGYTFTSYYMHWVRQAPGQGLEWMGIINPSGGSTSYAQKFQGRVTMTRDTSTSTVYMELSSLRSEDTAVYYCAREEYSSSSAEYFQHWGQGTLVTVSS
VL: not shown
notes: Germline 'Hit' Fab made in E. coli; The heavy chain variable region was cloned into Plasmid A (CH1, His6 and Flag tags) and the kappa light chain variable region into Plasmid C (kappa CL); also called Parent; parental
Take B2: the ECL signal/noise ratio amounted to 1.8 in experiment [3]; 1.6 in experiment [4]; 1.6 in [5]; 1.2 in experiment [6]; 40.9 in experiment [7]; 1.2 in [8]. Also, the ECL signal/noise ratio in experiment [9] is 1.2; in experiment [10], 1.3; in [11], 1.7.

B3: Fab VH1-46_IGHD6-6*01_IGHJ1*01 S104F & L6_IGKJ1*01 (Fab, V domains shown)
VH: QVQLVQSGAEVKKPGASVKVSCKASGYTFTSYYMHWVRQAPGQGLEWMGIINPSGGSTSYAQKFQGRVTMTRDTSTSTVYMELSSLRSEDTAVYYCAREEYSSFSAEYFQHWGQGTLVTVSS
VL: not shown
notes: as for B1
With B3, the “ECL signal” value in experiment [12] stood at 27100; in [13], 4280. In addition, the Signal/Noise in [12] is 195; in experiment [13] it was 15.3; in experiment [1], 76.5; in experiment [2], 134.

B4: Fab VH1-46_IGHD6-6*01_IGHJ1*01 S104R & L6_IGKJ1*01 (Fab, V domains shown)
VH: QVQLVQSGAEVKKPGASVKVSCKASGYTFTSYYMHWVRQAPGQGLEWMGIINPSGGSTSYAQKFQGRVTMTRDTSTSTVYMELSSLRSEDTAVYYCAREEYSSRSAEYFQHWGQGTLVTVSS
VL: not shown
notes: as for B1
With B4, the values for the Signal/Noise in experiment [1] and in experiment [2] were 23.4 and 28.6, respectively.

B5: Fab VH1-46_IGHD6-6*01_IGHJ1*01 S102A/S103P/S104F/H111F T28A & L6_IGKJ1*01 (Fab, V domains shown)
VH: QVQLVQSGAEVKKPGASVKVSCKASGYAFTSYYMHWVRQAPGQGLEWMGIINPSGGSTSYAQKFQGRVTMTRDTSTSTVYMELSSLRSEDTAVYYCAREEYAPFSAEYFQFWGQGTLVTVSS
VL: not shown
notes: Fab as for m1 (CH1 with His6/Flag tags, kappa CL); also called APFF T28A
On to B5, for which the ECL signal was found to be 181000 in experiment [14]; 432 in experiment [15]; 471 in experiment [16]; 408 in experiment [17]; 381 in experiment [18]; 480 in experiment [19]. In addition, the ECL signal was determined as 140000 in [20], 411 in experiment [21], 389 in experiment [22] and 427 in experiment [23]. The Signal/Noise in [24] was determined as 404.

B6: Fab VH1-46_IGHD6-6*01_IGHJ1*01 S104F & L6_IGKJ1*01 (Fab, V domains shown)
VH: QVQLVQSGAEVKKPGASVKVSCKASGYTFTSYYMHWVRQAPGQGLEWMGIINPSGGSTSYAQKFQGRVTMTRDTSTSTVYMELSSLRSEDTAVYYCAREEYSSFSAEYFQHWGQGTLVTVSS
VL: not shown
notes: Fab made in E. coli; The heavy chain variable region was cloned into Plasmid A (CH1, His6 and Flag tags) and the kappa light chain variable region into Plasmid C (kappa CL)
As to B6, the ECL signal/noise ratio is 1.7 in [4]; 195 in experiment [7]; 2 in experiment [9]; 1.6 in [10]; 0.6 in experiment [25]; 15.3 in experiment [26]. Also, the ECL signal/noise ratio in [27] was determined as 0.8; in [28], 0.6.

B7: Fab VH1-46_IGHD6-6*01_IGHJ1*01 S104H & L6_IGKJ1*01 (Fab, V domains shown)
VH: QVQLVQSGAEVKKPGASVKVSCKASGYTFTSYYMHWVRQAPGQGLEWMGIINPSGGSTSYAQKFQGRVTMTRDTSTSTVYMELSSLRSEDTAVYYCAREEYSSHSAEYFQHWGQGTLVTVSS
VL: not shown
notes: as for B1
As for B7, the “ECL signal” value amounted to 20100 in [12] and 4160 in [13]. Further, the Signal/Noise is 88.3 in experiment [12], 27 in experiment [13], 24.9 in [1] and 79.2 in [2].

B8: Fab VH1-46_IGHD6-6*01_IGHJ1*01 S102A/S103P/S104F/H111F S31A & L6_IGKJ1*01 (Fab, V domains shown)
VH: QVQLVQSGAEVKKPGASVKVSCKASGYTFTAYYMHWVRQAPGQGLEWMGIINPSGGSTSYAQKFQGRVTMTRDTSTSTVYMELSSLRSEDTAVYYCAREEYAPFSAEYFQFWGQGTLVTVSS
VL: not shown
notes: Fab as for m1 (CH1 with His6/Flag tags, kappa CL); also called APFF S31A
In the case of B8, the ECL signal in experiment [14] was 176000; in [15] it was 333; in experiment [16], 379; in experiment [17], 405; in experiment [18] it was 255; in experiment [19], 454. The ECL signal in [20] was 138000; in experiment [21] it was 207; in experiment [22], 394; in [23] it was 398. Moreover, in [24], the Signal/Noise came out at 530.
